Experimental data taken from publication PMC8887629.

Target: full-length human LRRK2 (leucine-rich repeat kinase 2) (human) (UniProt Q5S007)
Assay: cryo-EM structure

Substance: full-length human LRRK2 (leucine-rich repeat kinase 2) (from UniProt Q5S007 1-2527) (enzyme)
- stoichiometry N: 2
